What was measured:
[1] = target: T1, bovine ADAM10 disintegrin+cysteine-rich domain construct (D+C, residues 455-646) (bovine, UniProt Q10741 455-646); test: ELISA, 1H5 IgG titrated on immobilised bovine ADAM10 D+C, absorbance 450 nm [cont.) E]
T1 construct: range 455-646; also called ADAM10 D+C (b); bovine (b) ADAM10 D+C
T1 sequence (looked up): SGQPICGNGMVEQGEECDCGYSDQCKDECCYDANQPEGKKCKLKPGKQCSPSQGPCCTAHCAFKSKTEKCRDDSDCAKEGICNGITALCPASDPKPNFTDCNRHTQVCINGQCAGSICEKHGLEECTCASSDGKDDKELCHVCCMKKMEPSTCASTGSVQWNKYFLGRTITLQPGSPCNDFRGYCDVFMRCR

[2] = target: T2, recombinant ADAM10 ECD (species not stated); test: biolayer interferometry (data not shown)
T2 construct: extracellular domain; also called full recombinant ADAM10 ECD

[3] = target: T3, ADAM10 D+C domains construct (species not stated) (Bos taurus (Bovine), UniProt Q10741 455-646); test: biolayer interferometry (data not shown)
T3 construct: also called ADAM10 D+C antigen; isolated recombinant ADAM10 D+C region
T3 sequence: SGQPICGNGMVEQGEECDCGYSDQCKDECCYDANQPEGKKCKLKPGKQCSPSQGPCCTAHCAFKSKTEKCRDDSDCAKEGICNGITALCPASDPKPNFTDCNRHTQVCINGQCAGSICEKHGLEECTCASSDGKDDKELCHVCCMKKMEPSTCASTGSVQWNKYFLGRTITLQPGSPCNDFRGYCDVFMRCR

[4] = target: T4, human ADAM10 expressed on the cell surface (LIM1215, COLO205, HEK293, HEK293 transfected with full-length … (human, UniProt O14672 214-748)); test: cell-based ELISA, 1H5 signal normalised to mAb1427 signal
T4 construct: whole, on cells; also called tumor-expressed ADAM10; ADAM10 expressed on HEK293 cells
T4 sequence (looked up): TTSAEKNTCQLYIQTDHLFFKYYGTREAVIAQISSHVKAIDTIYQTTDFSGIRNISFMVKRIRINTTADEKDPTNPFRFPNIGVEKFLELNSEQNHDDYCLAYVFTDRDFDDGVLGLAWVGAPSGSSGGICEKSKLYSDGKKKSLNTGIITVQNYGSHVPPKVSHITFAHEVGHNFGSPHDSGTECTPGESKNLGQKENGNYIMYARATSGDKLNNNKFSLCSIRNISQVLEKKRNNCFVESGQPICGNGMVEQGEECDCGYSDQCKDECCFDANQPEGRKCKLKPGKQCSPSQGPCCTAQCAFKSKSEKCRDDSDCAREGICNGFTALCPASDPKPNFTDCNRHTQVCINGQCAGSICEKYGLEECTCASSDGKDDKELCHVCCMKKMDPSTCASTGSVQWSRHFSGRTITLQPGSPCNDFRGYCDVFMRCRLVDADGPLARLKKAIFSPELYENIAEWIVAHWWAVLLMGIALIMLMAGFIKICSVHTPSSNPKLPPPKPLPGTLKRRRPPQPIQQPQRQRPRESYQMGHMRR
Procedure: Briefly, 5×10⁴ cells/well were immobilized on 96-well ELISA plates (Greiner bio-one) with 1% paraformaldehyde for 2 hours at 37° C. The plate was washed thrice with PBS and blocked for 2 hours at room temperature with 4% non-fat dry milk. The anti-ADAM10 mAbs were added in varying concentrations. […] The data was recorded at 450 nm.

[5] = target: T5, human ADAM10 D+C (455-650) (human, UniProt O14672 455-650); test: ELISA, 1H5 IgG titrated on immobilised human ADAM10 D+C, absorbance 450 nm [cont.) E]
T5 construct: range 455-650; also called human (h) ADAM10 D+C; human (h) ADAM10 D-C
T5 sequence (looked up): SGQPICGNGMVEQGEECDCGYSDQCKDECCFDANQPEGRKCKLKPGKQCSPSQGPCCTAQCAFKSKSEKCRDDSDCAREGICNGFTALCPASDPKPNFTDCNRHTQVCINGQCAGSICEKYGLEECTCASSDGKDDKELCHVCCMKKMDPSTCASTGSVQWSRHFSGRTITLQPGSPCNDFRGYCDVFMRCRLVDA

[6] = target: T2, recombinant ADAM10 ECD (species not …); test: cell-based or functional assay
[7] = target: T3, ADAM10 D+C domains construct (species …); test: ELISA, 1H5 Fab titrated on ADAM10 D+C, absorbance 450 nm
Procedure: To perform the competitive ELISA, wells were coated with 100 μl of ADAM10 D+C (concentration 2 μg/ml). After washes with phosphate buffer solution (PBS), the wells were blocked with 4% non-fat dry milk. […] Color was developed using a TMB substrate kit and data was recorded at 450 nm. […] The final concentration of each mAb in the mixture was the same as when added individually. The mixture was added to the wells and incubated for 1 hour.

B1: 1H5 IgG (fully human anti-ADAM10 monoclonal antibody) (antibody, V domains shown)
VH: QVQLVESGGGLVKPGGSLRLSCAASGFTFSDYYMSWIRQAPGKGLEWVSYISSSGSTIYYADSVKGRFTISRDNAKNSLYLQMNSLRAEDTAVYYCARDFYDSKIFDYWGQGTLVTVSS
VL: DIQMTQSPSSLSASVGDRVTITCRASQSISSYLNWYQQKPGKAPKLLIYAASSLQSGVPSRFSGSGSGTDFTLTISSLQPEDVGVYYCMEGLKTPFTFGPGTKLEIKR
notes: the amino acid entries 14 and 15 are used here; also called 1H5 mAb; mAb 1H5
With B1 the “EC50 (read off the curve)” value [1] was about 3 nM, the Kd [2] was about 200 nM and the Kd [3] was 3.3 nM. For the same binder, the “fold better binding to tumor-expressed ADAM10 than to ADAM10 expressed on HEK293 cells” value [4] was about 14 fold, the “EC50 (read off the curve)” value [5] was about 3 nM and the “augmentation of fluorogenic substrate peptide cleavage, relative to 8C7” value [6] was about 2 fold.

B2: 1H5 Fab (Fab, V domains shown)
VH: QVQLVESGGGLVKPGGSLRLSCAASGFTFSDYYMSWIRQAPGKGLEWVSYISSSGSTIYYADSVKGRFTISRDNAKNSLYLQMNSLRAEDTAVYYCARDFYDSKIFDYWGQGTLVTVSS
VL: DIQMTQSPSSLSASVGDRVTITCRASQSISSYLNWYQQKPGKAPKLLIYAASSLQSGVPSRFSGSGSGTDFTLTISSLQPEDVGVYYCMEGLKTPFTFGPGTKLEIKR
notes: also called 1H5 Fab fragment; Fab fragment of 1H5
B2 gave an EC50 [7] of 15 nM.
